The record followed here is the supplement of paper PMC9233669.

Variants at the floor of the assay were thinned out.

One data set concerns biotinyl-Leu-oxazolone. Nature of the data set: self-aminoacylation, catalytic enhancement (BLO) (fold over background); higher = more active; k-Seq, kA / k0A0; sequences stand for … in GGGAAUGGAUCCACAUCUACGAAUUC…UUCACUGCAGACUUGACGAAGCUG
Summed up: (§1)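 Mutagenized RNA pools with a 21-nt variable region (0.43 μM) were reacted with each biotinyl-aminoacyl-oxazolone at 2–1250 μM for 90 minutes at room temperature, in 50 μL HEPES/NaCl/KCl/MgCl2/CaCl2 buffer containing 5% acetonitrile at pH 6.9–7.0. RNA captured on streptavidin was quantified by triplicate qPCR and by Illumina sequencing. The fraction reacted for each sequence was fit to a pseudo-first-order model with bootstrapping, and catalytic enhancement is the median kA divided by the uncatalyzed rate, taken as the low-activity peak of a bimodal Gaussian fit.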

For a further data set, the system named is biotinyl-Phe-oxazolone. Briefly: self-aminoacylation, catalytic enhancement (BFO) (fold over background); higher = more active; k-Seq, kA / k0A0; sequences stand for … in GGGAAUGGAUCCACAUCUACGAAUUC…UUCACUGCAGACUUGACGAAGCUG
Summed up:
as §1

The next data set concerns biotinyl-Trp-oxazolone. Briefly: self-aminoacylation, catalytic enhancement (BWO) (fold over background); higher = more active; k-Seq, kA / k0A0; sequences stand for … in GGGAAUGGAUCCACAUCUACGAAUUC…UUCACUGCAGACUUGACGAAGCUG
The gist of the method: as §1

A further data set relates to biotinyl-Met-oxazolone. Briefly: self-aminoacylation, catalytic enhancement (BMO) (fold over background); higher = more active; k-Seq, kA / k0A0; sequences stand for … in GGGAAUGGAUCCACAUCUACGAAUUC…UUCACUGCAGACUUGACGAAGCUG
Summed up:
as §1

The subject of the next data set is biotinyl-Val-oxazolone. Briefly: self-aminoacylation, catalytic enhancement (BVO) (fold over background); higher = more active; k-Seq, kA / k0A0; sequences stand for … in GGGAAUGGAUCCACAUCUACGAAUUC…UUCACUGCAGACUUGACGAAGCUG
Summed up: as §1

The next data set has as its system biotinyl-Ile-oxazolone. Briefly: self-aminoacylation, catalytic enhancement (BIO) (fold over background); higher = more active; k-Seq, kA / k0A0; sequences stand for … in GGGAAUGGAUCCACAUCUACGAAUUC…UUCACUGCAGACUUGACGAAGCUG
Summed up: as §1

In the case of “CCGCACUACAAGCAAUCGGUC [Fam1B.1 aminoacylation ribozyme variant]”, the self-aminoacylation with biotinyl-Leu-oxazolone was 1.02; in the data set on biotinyl-Phe-oxazolone, 1.55; in the data set with biotinyl-Trp-oxazolone, 1.36; in the data set on biotinyl-Met-oxazolone it was 0.932; with biotinyl-Val-oxazolone, 1.32; in the data set with biotinyl-Ile-oxazolone it was 1.33.
As for “AUUCCCCUAGGUCAUCGGGUC [Fam2.2 aminoacylation ribozyme variant]”, the self-aminoacylation was 5.52 in the data set with biotinyl-Leu-oxazolone; 22.8 in the data set on biotinyl-Phe-oxazolone; 4 in the data set on biotinyl-Trp-oxazolone; 4.08 in the data set with biotinyl-Met-oxazolone; 5.52 in the data set on biotinyl-Val-oxazolone; 4.5 with biotinyl-Ile-oxazolone.
For “AAGUAUGCUAAUAGACGCAAG [Fam3.1 aminoacylation ribozyme variant]”, the self-aminoacylation was 0.725 in the data set on biotinyl-Leu-oxazolone; 1.04 with biotinyl-Phe-oxazolone; 0.756 in the data set with biotinyl-Trp-oxazolone; 0.824 with biotinyl-Met-oxazolone; 0.637 in the data set with biotinyl-Val-oxazolone; 0.823 in the data set with biotinyl-Ile-oxazolone.
“AAGCUUGCGAAUAGUCGCAAG [Fam3.1 aminoacylation ribozyme variant]”: the self-aminoacylation is 2.2 in the data set on biotinyl-Leu-oxazolone; 2.7 in the data set on biotinyl-Phe-oxazolone; 2.32 in the data set on biotinyl-Trp-oxazolone; 2.12 in the data set on biotinyl-Met-oxazolone; 1.64 with biotinyl-Val-oxazolone; 2.39 in the data set on biotinyl-Ile-oxazolone.
As to “CCAUACUUCAAGCAAUCGGAC [Fam1B.1 aminoacylation ribozyme variant]”, the self-aminoacylation was found to be 0.856 with biotinyl-Leu-oxazolone; 1.21 in the data set with biotinyl-Phe-oxazolone; 0.768 with biotinyl-Trp-oxazolone; 1.17 with biotinyl-Met-oxazolone; 1.06 in the data set on biotinyl-Val-oxazolone; 1.01 in the data set with biotinyl-Ile-oxazolone.
Regarding “AAGUUUGCUAAUAUUGGCAAG [Fam3.1 aminoacylation ribozyme variant]”, the self-aminoacylation is 0.847 with biotinyl-Leu-oxazolone; 0.81 in the data set on biotinyl-Phe-oxazolone; 1.22 in the data set with biotinyl-Trp-oxazolone; 0.894 in the data set with biotinyl-Met-oxazolone; 0.784 in the data set on biotinyl-Val-oxazolone; 0.773 in the data set with biotinyl-Ile-oxazolone.
“AAGGCUGCUAAUAGUCGCAAG [Fam3.1 aminoacylation ribozyme variant]”: the self-aminoacylation in the data set with biotinyl-Leu-oxazolone is 1.64; in the data set with biotinyl-Phe-oxazolone it was 20; with biotinyl-Trp-oxazolone it was 7.19; with biotinyl-Met-oxazolone, 2.04; in the data set with biotinyl-Val-oxazolone, 1.38; in the data set on biotinyl-Ile-oxazolone it was 1.73.
Regarding “AUUACCCUGUUCAUCGAGUUA [Fam2.1 aminoacylation ribozyme variant]”, the self-aminoacylation with biotinyl-Leu-oxazolone was found to be 1.12; with biotinyl-Phe-oxazolone it was 0.909; with biotinyl-Trp-oxazolone, 0.616; in the data set with biotinyl-Met-oxazolone it was 1.13; in the data set on biotinyl-Val-oxazolone, 1.12; in the data set with biotinyl-Ile-oxazolone it was 1.19.
As to “CCACACUUCAAGCACUGGGUC [Fam1B.1 aminoacylation ribozyme variant]”, the self-aminoacylation in the data set on biotinyl-Leu-oxazolone turned out to be 0.971; in the data set on biotinyl-Phe-oxazolone, 0.974; in the data set with biotinyl-Trp-oxazolone it was 1.03; with biotinyl-Met-oxazolone, 0.66; in the data set with biotinyl-Val-oxazolone it was 1.1; in the data set with biotinyl-Ile-oxazolone, 0.807.
In the case of “AUAACCCUGGUCAUCGAGUGA [Fam2.1 aminoacylation ribozyme variant]”, the self-aminoacylation was 18.8 with biotinyl-Leu-oxazolone; 69.1 in the data set with biotinyl-Phe-oxazolone; 18.7 in the data set with biotinyl-Trp-oxazolone; 19.7 in the data set on biotinyl-Met-oxazolone; 8.59 with biotinyl-Val-oxazolone; 8.43 in the data set on biotinyl-Ile-oxazolone.
As to “CUACUUCAAACAUUCGAUCUG [Fam1A.1 aminoacylation ribozyme variant]”, the self-aminoacylation in the data set with biotinyl-Leu-oxazolone amounted to 0.561; in the data set on biotinyl-Phe-oxazolone, 0.62; in the data set with biotinyl-Trp-oxazolone it was 0.44; with biotinyl-Met-oxazolone it was 0.593; in the data set on biotinyl-Val-oxazolone it was 0.731; in the data set on biotinyl-Ile-oxazolone it was 0.645.
As to “CCGCACUUCAAGCAAUCGGAC [Fam1B.1 aminoacylation ribozyme variant]”, the self-aminoacylation stood at 0.812 in the data set on biotinyl-Leu-oxazolone; 1.31 in the data set with biotinyl-Phe-oxazolone; 1.86 in the data set on biotinyl-Trp-oxazolone; 1 in the data set with biotinyl-Met-oxazolone; 1.12 in the data set on biotinyl-Val-oxazolone; 1.07 in the data set with biotinyl-Ile-oxazolone.
Regarding “AGUACACUGGUCAUCGAGUGA [Fam2.1 aminoacylation ribozyme variant]”, the self-aminoacylation with biotinyl-Leu-oxazolone came to 4.42; in the data set with biotinyl-Phe-oxazolone it was 19.1; with biotinyl-Trp-oxazolone, 5.76; with biotinyl-Met-oxazolone, 4.07; with biotinyl-Val-oxazolone, 2.81; in the data set with biotinyl-Ile-oxazolone, 3.01.
Consider “AUUCACCUAGGUCAGCGCGUG [Fam2.2 aminoacylation ribozyme variant]”, for which the self-aminoacylation came to 14.9 in the data set on biotinyl-Leu-oxazolone; 71.2 in the data set on biotinyl-Phe-oxazolone; 11 in the data set on biotinyl-Trp-oxazolone; 10.9 in the data set with biotinyl-Met-oxazolone; 6.75 in the data set with biotinyl-Val-oxazolone; 6.84 with biotinyl-Ile-oxazolone.
As to “CCACACUACAAGCAAUCGGUU [Fam1B.1 aminoacylation ribozyme variant]”, the self-aminoacylation worked out at 0.677 in the data set with biotinyl-Leu-oxazolone; 1.55 in the data set with biotinyl-Phe-oxazolone; 1.39 with biotinyl-Trp-oxazolone; 0.918 with biotinyl-Met-oxazolone; 1.08 with biotinyl-Val-oxazolone; 1.02 with biotinyl-Ile-oxazolone.
As to “CCACACUGGAAGCAAUCGGUC [Fam1B.1 aminoacylation ribozyme variant]”, the self-aminoacylation in the data set with biotinyl-Leu-oxazolone was determined as 0.737; with biotinyl-Phe-oxazolone, 0.508; with biotinyl-Trp-oxazolone, 0.543; in the data set with biotinyl-Met-oxazolone, 0.78; with biotinyl-Val-oxazolone it was 1.08; with biotinyl-Ile-oxazolone, 0.881.
As for “AUUACCCUGAUCAUUGAGUGA [Fam2.1 aminoacylation ribozyme variant]”, the self-aminoacylation in the data set with biotinyl-Leu-oxazolone was 12.2; in the data set on biotinyl-Phe-oxazolone, 68.4; in the data set with biotinyl-Trp-oxazolone, 15.6; in the data set on biotinyl-Met-oxazolone, 12.9; with biotinyl-Val-oxazolone it was 5.87; with biotinyl-Ile-oxazolone, 5.87.
For the sequence “AAGUUAGCAAAUAGUCGCAAG [Fam3.1 aminoacylation ribozyme variant]”, the self-aminoacylation with biotinyl-Leu-oxazolone came to 1.32; with biotinyl-Phe-oxazolone, 2.37; with biotinyl-Trp-oxazolone, 1.36; in the data set on biotinyl-Met-oxazolone, 1.44; in the data set with biotinyl-Val-oxazolone it was 1.23; with biotinyl-Ile-oxazolone it was 1.42.
For “CUACUUCAAAUAAUCGCUCUG [Fam1A.1 aminoacylation ribozyme variant]”, the self-aminoacylation amounted to 0.583 in the data set with biotinyl-Leu-oxazolone; 2.37 in the data set with biotinyl-Phe-oxazolone; 1.23 in the data set with biotinyl-Trp-oxazolone; 0.562 in the data set with biotinyl-Met-oxazolone; 0.637 with biotinyl-Val-oxazolone; 0.6 with biotinyl-Ile-oxazolone.
Take “AUUCACCUAAGUCCUCGGGUG [Fam2.2 aminoacylation ribozyme variant]”: the self-aminoacylation is 10.1 in the data set on biotinyl-Leu-oxazolone; 45.8 in the data set with biotinyl-Phe-oxazolone; 6.98 with biotinyl-Trp-oxazolone; 7.52 in the data set on biotinyl-Met-oxazolone; 4.11 in the data set with biotinyl-Val-oxazolone; 4.5 in the data set on biotinyl-Ile-oxazolone.
Turning to “CUACUUCAAACCAUCGCUCUG [Fam1A.1 aminoacylation ribozyme variant]”, the self-aminoacylation in the data set on biotinyl-Leu-oxazolone was determined as 0.915; in the data set on biotinyl-Phe-oxazolone, 0.394; with biotinyl-Trp-oxazolone it was 0.532; with biotinyl-Met-oxazolone it was 0.762; in the data set on biotinyl-Val-oxazolone it was 0.982; in the data set with biotinyl-Ile-oxazolone, 0.878.
As to “CUACUUGAAACAACCGGUCUG [Fam1A.1 aminoacylation ribozyme variant]”, the self-aminoacylation is 0.805 in the data set with biotinyl-Leu-oxazolone; 0.529 in the data set on biotinyl-Phe-oxazolone; 1.24 in the data set on biotinyl-Trp-oxazolone; 1.18 with biotinyl-Met-oxazolone; 1.01 in the data set with biotinyl-Val-oxazolone; 1.07 with biotinyl-Ile-oxazolone.
On to “AUUACCCUGGUUAUCGAGGGA [Fam2.1 aminoacylation ribozyme variant]”, for which the self-aminoacylation with biotinyl-Leu-oxazolone worked out at 0.955; with biotinyl-Phe-oxazolone, 1.16; with biotinyl-Trp-oxazolone it was 1.79; in the data set on biotinyl-Met-oxazolone, 1.4; with biotinyl-Val-oxazolone, 1.16; in the data set with biotinyl-Ile-oxazolone, 1.55.
“AAGUUUGCUAGUUGUCGCAAG [Fam3.1 aminoacylation ribozyme variant]”: the self-aminoacylation in the data set on biotinyl-Leu-oxazolone was determined as 1.16; in the data set on biotinyl-Phe-oxazolone, 3.68; in the data set with biotinyl-Trp-oxazolone, 1.18; with biotinyl-Met-oxazolone, 0.898; in the data set with biotinyl-Val-oxazolone, 1.08; in the data set on biotinyl-Ile-oxazolone, 1.07.
With “AUUACCCUGGUCACCGAAUGA [Fam2.1 aminoacylation ribozyme variant]”, the self-aminoacylation in the data set on biotinyl-Leu-oxazolone is 1.31; with biotinyl-Phe-oxazolone, 0.595; with biotinyl-Trp-oxazolone it was 0.91; in the data set with biotinyl-Met-oxazolone it was 1.22; in the data set with biotinyl-Val-oxazolone, 1.15; in the data set on biotinyl-Ile-oxazolone, 0.992.
